Assay results as given in paper doi:10.1101/431494, “Conservation of the structural and functional architecture of encapsulated ferritins in bacteria and archaea” (bioRxiv, 2018).
“And” between values parts separate entries of the source, which are not always exact repeats. Equal values may be shown once.

What was measured:
[1] = molecular target: the molecule itself; assay: SDS-PAGE (resistance of oligomers to SDS and heat denaturation); SDS-PAGE of the size-exclusion peak fractions
[2] = molecular target: the molecule itself; assay: SEC; analytical size-exclusion chromatography, Superdex 200 16/60, 50 mM Tris-HCl pH 8.0, 150 mM NaCl, calibrated with standards of known molecular weight
[3] = molecular target: the molecule itself; assay: native MS; nano-ESI, 100 mM ammonium acetate pH 8.0, ~5 uM (oligomer concentration)
[4] = molecular target: the molecule itself; assay: crystal structure; sitting drop vapour diffusion; Hoch_EncFtn in 0.2 M NaCl, 0.1 M Bis-Tris pH 5.5, 20 % PEG 3350; Pfc_EncFtn in 0.2 M LiSO4, 20 % PEG 3350; molecular replacement with PDB 5DA5

Protein | stoichiometry N [1] | stoichiometry N [2] | stoichiometry N [3] | stoichiometry N [4]
Pyrococcus furiosus encapsulated ferritin domain, residues 1-99, C-terminal StrepII-tagged variant (domain or fragment, UniProt Q8U1L4 1-99, looked up, EncFtn domain (residues 1-99) of the single contiguous EncFtn-encapsulin polypeptide of Pyrococcus furiosus; locus tag printed as Pfc_01575, Pfc_05157 and Pfc_05175; source: E. coli BL21(DE3), purified (Strep-Trap HP); not shown: StrepII, C-terminal, kept) MLSINPTLINRDKPYTKEELMEILRLAIIAELDAINLYEQMARYSEDENVRKILLDVAREEKAHVGEFMALLLNLDPEQVTELKGGFEEVKELTGIEAH | 2 | 10 and ~20 |  | 
Rhodospirillum rubrum encapsulated ferritin, hexahistidine-tagged variant (natural protein, UniProt Q2RVS1 1-140, looked up) MAQSSNSTHEPLEVLKEETVNRHRAIVSVMEELEAVDWYDQRVDASTDPELTAILAHNRDEEKEHAAMTLEWLRRNDAKWAEHLRTYLFTEGPITAIEAADTAGEGSGGDAAKGATAQGDGSLGIGSLKGEAALARPPRL |  |  | 10 | 
Pyrococcus furiosus encapsulated ferritin domain, residues 1-99, C-terminal hexahistidine tagged variant (domain or fragment, UniProt Q8U1L4 1-99, looked up, EncFtn domain (residues 1-99) of the single contiguous EncFtn-encapsulin polypeptide of Pyrococcus furiosus; locus tag printed as Pfc_01575, Pfc_05157 and Pfc_05175; source: E. coli BL21(DE3), purified (HisTrap FF, S200 size-exclusion chromatography); not shown: His6, C-terminal, kept) MLSINPTLINRDKPYTKEELMEILRLAIIAELDAINLYEQMARYSEDENVRKILLDVAREEKAHVGEFMALLLNLDPEQVTELKGGFEEVKELTGIEAH |  | ~10 | 10 | 
Pyrococcus furiosus encapsulated ferritin domain as crystallised (PDB 5N5E) (domain or fragment, UniProt Q8U1L4 1-99, looked up, EncFtn domain (residues 1-99) of the single contiguous EncFtn-encapsulin polypeptide of Pyrococcus furiosus; electron density visible for residues 2-98 in each chain; source: E. coli BL21(DE3), purified; copies: 10) MLSINPTLINRDKPYTKEELMEILRLAIIAELDAINLYEQMARYSEDENVRKILLDVAREEKAHVGEFMALLLNLDPEQVTELKGGFEEVKELTGIEAH |  |  |  | 10
Rhodospirillum rubrum encapsulated ferritin, Strep-tagged variant (natural protein, UniProt Q2RVS1 1-140, looked up, source: recombinant, purified by Strep-Trap column HP) MAQSSNSTHEPLEVLKEETVNRHRAIVSVMEELEAVDWYDQRVDASTDPELTAILAHNRDEEKEHAAMTLEWLRRNDAKWAEHLRTYLFTEGPITAIEAADTAGEGSGGDAAKGATAQGDGSLGIGSLKGEAALARPPRL |  | 10 |  | 
